From publication PMC6317261, “Functional dissection of the developmentally restricted BEN domain chromatin boundary factor Insensitive” (Epigenetics & Chromatin, 2019)
“And” between values parts separate entries of the source, which are not always exact repeats. Identical values can stand only once.

Tests used:
HT:F-Insv [1] = target: T1, HT:F-Insv (UniProt Q8SYK5 1-376); assay: EMSA; at least three shifts; EMSA: 25 mM Tris-HCl pH 7.4, 100 mM KCl, 1 mM EDTA, 0.1 mM DTT, 0.1 mM PMSF, 0.03 mg/mL BSA, 10% glycerol, 0.5% Triton X-100, 0.25 mg/mL poly(dI-dC), 30 min room temperature; settings: protein: recombinant; tags: N-terminal His-Thioredoxin; label: 5'-32P; blunt
T1 sequence: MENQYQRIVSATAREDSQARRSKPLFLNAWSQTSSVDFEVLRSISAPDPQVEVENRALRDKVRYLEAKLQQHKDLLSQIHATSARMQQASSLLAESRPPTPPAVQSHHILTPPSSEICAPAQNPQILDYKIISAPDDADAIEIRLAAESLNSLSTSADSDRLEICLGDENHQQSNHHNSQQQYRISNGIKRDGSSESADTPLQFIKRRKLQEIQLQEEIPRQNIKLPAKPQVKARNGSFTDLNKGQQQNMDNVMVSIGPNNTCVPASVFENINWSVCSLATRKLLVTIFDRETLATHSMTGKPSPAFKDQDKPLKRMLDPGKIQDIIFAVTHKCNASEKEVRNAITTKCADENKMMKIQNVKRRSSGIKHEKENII

HS:C-BEN [2] = target: T2, HS:C-BEN (UniProt Q8SYK5 210-376); assay: EMSA; multiple shifts, at lower protein than for P2; EMSA: 25 mM Tris-HCl pH 7.4, 100 mM KCl, 1 mM EDTA, 0.1 mM DTT, 0.1 mM PMSF, 0.03 mg/mL BSA, 10% glycerol, 0.5% Triton X-100, 0.25 mg/mL poly(dI-dC), 30 min room temperature; settings: protein: recombinant; tags: N-terminal His-Sumo; chain copies: 2; label: 5'-32P; blunt
T2 sequence: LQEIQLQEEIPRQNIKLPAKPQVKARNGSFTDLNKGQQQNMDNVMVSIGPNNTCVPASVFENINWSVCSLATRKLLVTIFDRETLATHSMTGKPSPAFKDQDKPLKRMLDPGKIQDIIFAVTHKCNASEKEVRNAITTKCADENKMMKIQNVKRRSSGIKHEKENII

HT:F-Insv [3] = target: T1, HT:F-Insv; assay: EMSA; multiple shifts; 0.0005-0.5 uM protein; EMSA: 25 mM Tris-HCl pH 7.4, 100 mM KCl, 1 mM EDTA, 0.1 mM DTT, 0.1 mM PMSF, 0.03 mg/mL BSA, 10% glycerol, 0.5% Triton X-100, 0.25 mg/mL poly(dI-dC), 30 min room temperature; settings: protein: recombinant; tags: N-terminal His-Thioredoxin; label: 5'-32P; blunt
HS:C-BEN [4] = target: T2, HS:C-BEN; assay: EMSA; multiple shifts, mainly tetramer/hexamer; EMSA: 25 mM Tris-HCl pH 7.4, 100 mM KCl, 1 mM EDTA, 0.1 mM DTT, 0.1 mM PMSF, 0.03 mg/mL BSA, 10% glycerol, 0.5% Triton X-100, 0.25 mg/mL poly(dI-dC), 30 min room temperature; settings: protein: recombinant; tags: N-terminal His-Sumo; chain copies: 2; label: 5'-32P; blunt
[5] = target: the molecule itself; assay: SEC; Superose 6 10/300 column; 500 uL of the eluted protein loaded; fractions analysed by SDS-PAGE and EMSA; sizes estimated against Bio-Rad standards
[6] = target: the molecule itself; assay: SEC; Superdex 200 10/300 column; 500 uL of the eluted protein loaded; sizes estimated against Bio-Rad standards (1.35 to 670 kDa)
[7] = target: the molecule itself; assay: cross-linking; glutaraldehyde, 10 min at room temperature in PBS with 1 mM beta-mercaptoethanol; protein adjusted to 10 uM; SDS-PAGE, silver staining
[8] = target: the molecule itself; assay: cross-linking; EGS, increasing amounts, 10 min at room temperature in PBS with 1 mM beta-mercaptoethanol; protein adjusted to 10 uM; SDS-PAGE, silver staining

B1: 2xPal (dsDNA)
DNA 1: CTCGAGGGGTTTCTTTCCCAATTGGAAATGCGTCCTGTCGAGGGGTTTCTTTCCCAATTGGAAATGCGTCCTGTCGACGGTATCGATAAGCTTGATATCGAATTCCTGCAGCCCGGGGATCC
DNA 2: GGATCCCCGGGCTGCAGGAATTCGATATCAAGCTTATCGATACCGTCGACAGGACGCATTTCCAATTGGGAAAGAAACCCCTCGACAGGACGCATTTCCAATTGGGAAAGAAACCCCTCGAG
B1: binds (HT:F-Insv [1]); binds (HS:C-BEN [2]).

B2: P2 (P2#7) (dsDNA)
DNA 1: CTTGCGCAGGACTTTTGAGATTCTATTAAATTCTAACAAGATTTCAAGCTGTGTGGCGGGGGGAAGAGGAAGAGAGCGGAAAGTGCAGCGCCCAATAAGCAAATGGCAGCTGTCACG
DNA 2: CGTGACAGCTGCCATTTGCTTATTGGGCGCTGCACTTTCCGCTCTCTTCCTCTTCCCCCCGCCACACAGCTTGAAATCTTGTTAGAATTTAATAGAATCTCAAAAGTCCTGCGCAAG
B2: binds (HT:F-Insv [3]); binds (HS:C-BEN [4]).

B3: His-Thioredoxin F-Insv (HT:F-Insv) (natural protein, Drosophila, UniProt Q8SYK5 1-376, looked up)
chain: MENQYQRIVSATAREDSQARRSKPLFLNAWSQTSSVDFEVLRSISAPDPQVEVENRALRDKVRYLEAKLQQHKDLLSQIHATSARMQQASSLLAESRPPTPPAVQSHHILTPPSSEICAPAQNPQILDYKIISAPDDADAIEIRLAAESLNSLSTSADSDRLEICLGDENHQQSNHHNSQQQYRISNGIKRDGSSESADTPLQFIKRRKLQEIQLQEEIPRQNIKLPAKPQVKARNGSFTDLNKGQQQNMDNVMVSIGPNNTCVPASVFENINWSVCSLATRKLLVTIFDRETLATHSMTGKPSPAFKDQDKPLKRMLDPGKIQDIIFAVTHKCNASEKEVRNAITTKCADENKMMKIQNVKRRSSGIKHEKENII
notes: Insensitive (Insv), Drosophila, full-length; also called HT:Insv; HT-Insv; source: E. coli, purified (Ni-NTA Agarose); not shown: His6, N-terminal, kept; Thioredoxin, N-terminal, kept
With B3 the “stoichiometry N” value [5] was 2 and 4.

B4: His-Sumo C-BEN (HS:C-BEN) (domain or fragment, Drosophila, UniProt Q8SYK5 210-376, looked up)
chain: LQEIQLQEEIPRQNIKLPAKPQVKARNGSFTDLNKGQQQNMDNVMVSIGPNNTCVPASVFENINWSVCSLATRKLLVTIFDRETLATHSMTGKPSPAFKDQDKPLKRMLDPGKIQDIIFAVTHKCNASEKEVRNAITTKCADENKMMKIQNVKRRSSGIKHEKENII
notes: Insensitive (Insv), Drosophila; C domain plus BEN domain; 'lacks amino acids 1-209'; elsewhere the C domain is said to extend from aa 209 to aa 253; about 32 kDa with the tag; source: E. coli, purified (Ni-NTA Agarose); not shown: His6, N-terminal, kept; Sumo, N-terminal, kept
For B4, the “stoichiometry N” value [6] was 2 and the “stoichiometry N” value [7] was 4.

B5: HT:N1-213 (domain or fragment, Drosophila, UniProt Q8SYK5 1-213, looked up)
chain: MENQYQRIVSATAREDSQARRSKPLFLNAWSQTSSVDFEVLRSISAPDPQVEVENRALRDKVRYLEAKLQQHKDLLSQIHATSARMQQASSLLAESRPPTPPAVQSHHILTPPSSEICAPAQNPQILDYKIISAPDDADAIEIRLAAESLNSLSTSADSDRLEICLGDENHQQSNHHNSQQQYRISNGIKRDGSSESADTPLQFIKRRKLQEI
notes: source: E. coli, purified (Ni-NTA Agarose); not shown: His6, N-terminal, kept; Thioredoxin, N-terminal, kept
For B5, the “stoichiometry N” value [8] was 4.
